Experimental data: patent US9617572B2, “Methods of producing 7-carbon chemicals via aromatic compounds” (INVISTA North America S.á r.l., priority 2012, dated 2017)

Assays:
Type in all cases: biochemical
[1] = Carboxylate reductase activity assay (pimelate semialdehyde to heptanedial); conditions: purified enzyme enhanced by sfp gene product, 2 mM pimelate semialdehyde, 1 mM ATP, 1 mM NADPH, pH 7.5, room temperature, 20 min, against empty vector control
Method: The N-terminal His-tagged carboxylate reductase of SEQ ID NO 7 (see Example 4 and FIG. 7F) was assayed using pimelate semialdehyde as substrate. The enzyme activity assay was performed in triplicate in a buffer composed of a final concentration of 50 mM HEPES buffer (pH=7.5), 2 mM pimelate semialdehyde, 10 mM MgCl2, 1 mM ATP and 1 mM NADPH. The enzyme activity assay reaction was initiated by adding purified carboxylate reductase and phosphopantetheine transferase or the empty vector control to the assay buffer containing the pimelate semialdehyde and then incubated at room temperature for 20 min. The consumption of NADPH was monitored by absorbance at 340 nm.

[2] = Carboxylate reductase activity assay (pimelate to pimelate semialdehyde); conditions: purified enzyme enhanced by sfp gene product, 2 mM pimelate, 1 mM ATP, 1 mM NADPH, pH 7.5, room temperature, 20 min, against empty vector control
Method: A sequence encoding a HIS-tag was added to the genes from Segniliparus rugosus and Segniliparus rotundus that encode the carboxylate reductases of SEQ ID NOs: 4 and 7, respectively (see FIGS. 7C and 7F), such that N-terminal HIS tagged carboxylate reductases could be produced. Each of the modified genes was cloned into a pET Duet expression vector along with a sfp gene encoding a HIS-tagged phosphopantetheine transferase from Bacillus subtilis, both under the T7 promoter. Each expression vector was transformed into a BL21[DE3] E. coli host and the resulting recombinant E. coli strains were cultivated at 37° C. in a 250 mL shake flask culture containing 50 mL LB media and antibiotic selection pressure, with shaking at 230 rpm. Each culture was induced overnight at 37° C. using an auto-induction media.
The pellet from each induced shake flask culture was harvested via centrifugation. Each pellet was resuspended and lysed via sonication, and the cell debris was separated from the supernatant via centrifugation. […]
Enzyme activity assays (i.e., from pimelate to pimelate semialdehyde) were performed in triplicate in a buffer composed of a final concentration of 50 mM HEPES buffer (pH=7.5), 2 mM pimelate, 10 mM MgCl2, 1 mM ATP and 1 mM NADPH. […] The consumption of NADPH was monitored by absorbance at 340 nm.

[3] = Carboxylate reductase activity assay (N7-acetyl-7-aminoheptanoate to N7-acetyl-7-aminoheptanal); conditions: purified enzyme enhanced by sfp gene product, 2 mM N7-acetyl-7-aminoheptanoate, 1 mM ATP, 1 mM NADPH, pH 7.5, room temperature, 20 min, against empty vector control
Method: The activity of each of the N-terminal His-tagged carboxylate reductases of SEQ ID NOs: 3, 6, and 7 (see Example 4, and FIGS. 7B, 7E, and 7F) for converting N7-acetyl-7-aminoheptanoate to N7-acetyl-7-aminoheptanal was assayed in triplicate in a buffer composed of a final concentration of 50 mM HEPES buffer (pH=7.5), 2 mM N7-acetyl-7-aminoheptanoate, 10 mM MgCl2, 1 mM ATP, and 1 mM NADPH. The assays were initiated by adding purified carboxylate reductase and phosphopantetheine transferase or the empty vector control to the assay buffer containing the N7-acetyl-7-aminoheptanoate then incubated at room temperature for 20 min. The consumption of NADPH was monitored by absorbance at 340 nm.

B1: SEQ ID NO 7: Segniliparus rotundus carboxylate reductase, Genbank Accession No. ADG98140.1 (protein, listed as Segniliparus rotundus)
chain: MTQSHTQGPQASAAHSRLARRAAELLATDPQAAATLPDPEVVRQATRPGLRLAERVDAILSGYADRPALGQRSFQTVKDPITGRSSVELLPTFDTITYRELRERATAIASDLAHHPQAPAKPGDFLASIGFISVDYVAIDIAGVFAGLTAVPLQTGATLATLTAITAETAPTLFAASIEHLPTAVDAVLATPSVRRLLVFDYRAGSDEDREAVEAAKRKIADAGSSVLVDVLDEVIARGKSAPKAPLPPATDAGDDSLSLLIYTSGSTGTPKGAMYPERNVAHFWGGVWAAAFDEDAAPPVPAINITFLPLSHVASRLSLMPTLARGGLMHFVAKSDLSTLFEDLKLARPTNLFLVPRVVEMLYQHYQSELDRRGVQDGTREAEAVKDDLRTGLLGGRILTAGFGSAPLSAELAGFIESLLQIHLVDGYGSTEAGPVWRDGYLVKPPVTDYKLIDVPELGYFSTDSPHPRGELAIKTQTILPGYYKRPETTAEVFDEDGFYLTGDVVAQIGPEQFAYVDRRKNVLKLSQGEFVTLAKLEAAYSSSPLVRQLFVYGSSERSYLLAVIVPTPDALKKFGVGEAAKAALGESLQKIARDEGLQSYEVPRDFIIETDPFTVENGLLSDARKSLRPKLKEHYGERLEAMYKELADGQANELRDIRRGVQQRPTLETVRRAAAAMLGASAAEIKPDAHFTDLGGDSLSALTFSNFLHDLFEVDVPVGVIVSAANTLGSVAEHIDAQLAGGRARPTFATVHGKGSTTIKASDLTLDKFIDEQTLEAAKHLPKPADPPRTVLLTGANGWLGRFLALEWLERLAPAGGKLITIVRGKDAAQAKARLDAAYESGDPKLAGHYQDLAATTLEVLAGDFSEPRLGLDEATWNRLADEVDFISHPGALVNHVLPYNQLFGPNVAGVAEIIKLAITTRIKPVTYLSTVAVAAGVEPSALDEDGDIRTVSAERSVDEGYANGYGNSKWGGEVLLREAHDRTGLPVRVFRSDMILAHQKYTGQVNATDQFTRLVQSLLATGLAPKSFYELDAQGNRQRAHYDGIPVDFTAESITTLGGDGLEGYRSYNVFNPHRDGVGLDEFVDWLIEAGHPITRIDDYDQWLSRFETSLRGLPESKRQASVLPLLHAFARPGPAVDGSPFRNTVFRTDVQKAKIGAEHDIPHLGKALVLKYADDIKQLGLL
With B1 the “acceptance of pimelate semialdehyde as substrate, forming heptanedial (consumption of NADPH, absorbance at 340 nm)” value [1] was “accepted pimelate semialdehyde as substrate”, the “acceptance of pimelate as substrate (consumption of NADPH, absorbance at 340 nm)” value [2] was “accepted pimelate as substrate” and the “acceptance of N7-acetyl-7-aminoheptanoate as substrate (consumption of NADPH, absorbance at 340 nm)” value [3] was “accepted N7-acetyl-7-aminoheptanoate as substrate”.
